Data published in patent US8119572B2, “Methods for determining protein binding specificity using peptide libraries” (Wisconsin Alumni Research Foundation, priority 2005, dated 2012).
No end group written: not given here.

Target: T1, SIRT1 (Homo sapiens, UniProt Q96EB6)
T1 construct: made in house
T1 sequence (Q96EB6 1-747): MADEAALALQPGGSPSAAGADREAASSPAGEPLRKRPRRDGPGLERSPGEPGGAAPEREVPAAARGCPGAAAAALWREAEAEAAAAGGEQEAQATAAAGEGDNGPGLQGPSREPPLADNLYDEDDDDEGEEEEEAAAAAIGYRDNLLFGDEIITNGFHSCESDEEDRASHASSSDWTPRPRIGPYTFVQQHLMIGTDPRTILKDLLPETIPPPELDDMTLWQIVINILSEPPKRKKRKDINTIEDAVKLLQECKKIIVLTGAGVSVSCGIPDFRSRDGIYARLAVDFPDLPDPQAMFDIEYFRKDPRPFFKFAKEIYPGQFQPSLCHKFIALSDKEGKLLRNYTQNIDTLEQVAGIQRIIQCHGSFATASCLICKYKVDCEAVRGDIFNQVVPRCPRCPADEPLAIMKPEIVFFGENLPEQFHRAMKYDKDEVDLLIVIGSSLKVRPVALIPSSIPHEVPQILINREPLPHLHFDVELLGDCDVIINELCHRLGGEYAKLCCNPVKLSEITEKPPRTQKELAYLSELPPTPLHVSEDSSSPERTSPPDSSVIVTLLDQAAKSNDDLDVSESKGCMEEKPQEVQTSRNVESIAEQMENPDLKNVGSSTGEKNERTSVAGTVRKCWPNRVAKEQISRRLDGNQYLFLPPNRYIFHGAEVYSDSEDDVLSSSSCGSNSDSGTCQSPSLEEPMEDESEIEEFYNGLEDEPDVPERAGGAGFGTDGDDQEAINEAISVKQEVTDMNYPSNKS
Experiment: Radioactive TLC-based [32P]-NAD+ in-solution kinetic analysis of resynthesized hits and non-hits
Type: biochemical
Conditions: for fold difference in catalytic activity in favor over WP(AcK)QQ: compared with WP(AcK)QQ, Table 3 values
Method: All solution phase Sir2 assays were carried out at 25° C. in 50 mM Tris.HCl. Reactions were done in 50-100 μL with 0.1-1.5 μM enzyme, 0.1-1.2 mM NAD^+, 0.5-1000 μM peptide and 1 mM DTT. Reaction mixtures were quenched with TFA to a final concentration of 1% after 5-10 min and nicotinamide levels were quantitated by HPLC at 264 nm.
Alternatively, [^32P]-NAD^+ (10 mCi/mL) was used in assays and quenched reaction mixtures were spotted on a silica TLC plate and run in a chamber containing 60% ethanol and 40 2.5 mM ammonium acetate for 3-4 hours. Levels of ^32P-OAADPr and ^32P-NAD^+ were then quantitated by phosphorimaging and the fraction turnover was calculated. Saturation curves were done at varying concentrations of peptide while holding that of NAD^+ constant. Time points were chosen such that product formation never exceeded 20% conversion and data were plotted as rate (s^−1) vs. peptide concentration. Plots were fitted to the Michaelis-Menten equation, v=[(kcat/Km)[S]]/(1+[S]/Km) using Kaleidagraph software (Reading, Pa.) to extract Km and kcat/Km.
To validate the results of the library screen, select hits and non-hits were resynthesized and subjected to in-solution kinetic analysis (Table 3). A radioactive TLC-based assay was employed with subsaturating levels of [^32P]-NAD^+ to determine the relative catalytic efficiencies (Jackson et al., 2003, J. Biol. Chem. 278: 50985-50998). In addition, two “consensus” peptides containing residues occurring with the highest and lowest frequency at each position, independent of context, were analyzed. For comparison, a 5-mer comprised of a sequence corresponding to a known site for p53 deacetylation by SIRT1 was assayed (Table 3).
In Table 3, efficiencies (^x=average) were obtained by fitting the data from [^32P]-NAD^+ assays to the modified Michaelis-Menten equation, v=[(kcat/Km)[S]]/(1+[S]/Km). […] Catalytic efficiencies of peptides containing the residues of the highest^b/lowest^c frequency at each position and the sequence relevant to p53 deacetylation in vivo^d are shown for comparison.

Substance | catalytic activity, comparison of hits and non-hits in words (in-solution kinetic analysis) | fold difference in catalytic activity in favor over WP(AcK)QQ
AY(AcK)EV (Ac-AYK(Ac)EV) [resynthesized select non-hit] | comparable to those of a few of the hits | 
QP(AcK)QI (Ac-QPK(Ac)QI) [resynthesized select hit of SIRT1 library screen] |  | 18 fold
WH(AcK)QQ (Ac-WHK(Ac)QQ) |  | seven
